Reference: article PMC9497064, “Model of the SARS-CoV-2 Virus for Development of a DNA-Modified, Surface-Enhanced Raman Spectroscopy Sensor with a Novel Hybrid Plasmonic Platform in Sandwich Mode”

How the values were obtained:
[1] = biological target: T1, RBD on Ag nanoparticles (RBD NP) (SARS-CoV-2 (Wuhan strain), UniProt P0DTC2 319-541); experiment: SERS sandwich; BLI ([…]; BLI ([…], room temperature; […]
[2] = biological target: T1, RBD on Ag nanoparticles (RBD NP); experiment: BLI; BLI ([…]; BLI ([…], room temperature; […]

Binder	binding result [1]	binding result [2]
Found-SH (ssDNA) DNA: CACCGCTTTTGCCTTTTGGGGACGGATATAGGGAAACACGATAGAATCCGAACAGCACC	binds	–
RBD-1C (biotinylated) (ssDNA) DNA: CAGCACCGACCTTGTGCTTTGGGAGTGCTGGTCCAAGGGCGTTAATGGACA	–	binds
RBD-1C-Cy3 (ssDNA) DNA: CAGCACCGACCTTGTGCTTTGGGAGTGCTGGTCCAAGGGCGTTAATGGACA	binds	–
